The target in assay [1] is anti-myc monoclonal antibody (doped selection experiment). Kind of assay: immunoprecipitation; PCR and restriction digest before and after selection.
For assay [2] the target is unchanged. Kind of assay: second set of digests, method 2; sample equivalent to lane 2 (1:20 myc:pool).
The target is the same in assay [3]. Kind of assay: second set of digests, method 2; sample equivalent to lane 3 (1:200 myc:pool).
Assay [4] has the same target. Kind of assay: second set of digests, method 2; sample equivalent to lane 4 (1:2000 myc:pool).
Assay [5] has the same target. Kind of assay: immunoprecipitation from 1:20 myc:pool (LP154:LP160); PCR, AlwnI digest, phosphorimager; background method 1.
For assay [6] the target is unchanged. Kind of assay: immunoprecipitation from 1:20 myc:pool (LP154:LP160); PCR, AlwnI digest, phosphorimager; background method 2.
Assay [7] shares this target. Kind of assay: immunoprecipitation from 1:20 myc:pool (LP154:LP160); PCR, AlwnI digest, phosphorimager; background method 3.
Assay [8] shares this target. Kind of assay: immunoprecipitation from 1:200 myc:pool (LP154:LP160); PCR, AlwnI digest, phosphorimager; background method 1.
Assay [9] shares this target. Kind of assay: immunoprecipitation from 1:200 myc:pool (LP154:LP160); PCR, AlwnI digest, phosphorimager; background method 2.
The target is the same in assay [10]. Kind of assay: immunoprecipitation from 1:200 myc:pool (LP154:LP160); PCR, AlwnI digest, phosphorimager; background method 3.
The target is the same in assay [11]. Kind of assay: immunoprecipitation from 1:2000 myc:pool (LP154:LP160); PCR, AlwnI digest, phosphorimager; background method 1.
The target is the same in assay [12]. Kind of assay: immunoprecipitation from 1:2000 myc:pool (LP154:LP160); PCR, AlwnI digest, phosphorimager; background method 2.
The target is the same in assay [13]. Kind of assay: immunoprecipitation from 1:2000 myc:pool (LP154:LP160); PCR, AlwnI digest, phosphorimager; background method 3.

B1: RNA-protein fusion LP154 (long myc template fusion) (peptide)
peptide: MAEEQKLISEEDLLRKRREQLKHKLEQLRNSCA
modifications: C-terminus joined by an amide bond to the 3' puromycin of its own mRNA-DNA linker template LP154 (SEQ ID NO: 3)
As to B1, in assay [1], the enrichment (fold) relative to the random library was in the range of 20 to 40 fold. The enrichment (fold) of myc template vs. pool in [2] came to 10.7 fold; in [3], 38 fold; in [4], 12 fold. Further, the Enrichment of Myc Template vs. Pool in [5] was 7 fold; in [6] it was 10.4 fold; in [7] it was 8.7 fold; in [8], 16.6 fold; in assay [9] it was 43 fold; in assay [10], 27 fold. The values for the Enrichment of Myc Template vs. Pool in assay [11], in assay [12] and in assay [13] were 5.7 fold, 39 fold and 10.2 fold, respectively.
